Results from patent US20260167699A1 (Chugai, published 2026).
Blank lines part the entries; values can stand above or below the binder they belong to.

Biological target: T1, FcγRIIIa (human, UniProt P08637 17-208)
T1 construct: extracellular domain; also called 3a; FcγRIIIa extracellular domain
Assay: SPR (Biacore);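 also: antibody variants captured on an SPR sensor chip, with FcγRIIIa passed over as analyte in HBS-EP+ buffer at 25 °C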

T1 sequence (P08637 other isoform, or with tags, fused parts or gaps): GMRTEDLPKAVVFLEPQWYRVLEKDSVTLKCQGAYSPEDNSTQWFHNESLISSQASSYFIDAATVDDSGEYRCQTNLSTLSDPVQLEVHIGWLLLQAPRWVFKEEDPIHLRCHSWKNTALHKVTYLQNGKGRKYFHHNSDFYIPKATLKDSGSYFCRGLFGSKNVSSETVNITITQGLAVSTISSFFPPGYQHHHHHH

He/Con 3a: 76 % of GpH7-A5/GpH7-B3/GpL16-k0
B2: GpH7-A5/GpH7-B3 variant I332_08L/GpL16-k0 (antibody, human IgG1, kappa)
heavy 1: not shown
heavy 2: not shown
light: DIVMTQSPLSLPVTPGEPASISCQASESLVHSNRNTYLHWYLQKPGQSPQLLIYKVSNRFSGVPDRFSGSGSGTDFTLKISRVEAEDVGVYYCSQNTHVPPTFGQGTKVEIERTVAAPSVFIFPPSDEQLKSGTASVVCLLNNFYPREAKVQWKVDNALQSGNSQESVTEQDSKDSTYSLSSTLTLSKADYEKHKVYACEVTHQGLSSPVTKSFNRGEC
notes: copies: 1 + 1 + 2

He/Con 3a: 114 % of GpH7-A5/GpH7-B3/GpL16-k0
B9: GpH7-A5/GpH7-B3 variant I336_10E/GpL16-k0 (antibody, human IgG1, kappa)
heavy 1: not shown
heavy 2: not shown
light: B2 light
notes: copies: 1 + 1 + 2

He/Con 3a: 113 % of GpH7-A5/GpH7-B3/GpL16-k0
B14: GpH7-A5/GpH7-B3 variant H268_19Q/GpL16-k0 (antibody, human IgG1, kappa)
heavy 1: not shown
heavy 2: not shown
light: B2 light
notes: copies: 1 + 1 + 2

He/Con 3a: 102 % of GpH7-A5/GpH7-B3/GpL16-k0
B15: GpH7-A5/GpH7-B3 variant I336_09D/GpL16-k0 (antibody, human IgG1, kappa)
heavy 1: not shown
heavy 2: not shown
light: B2 light
notes: copies: 1 + 1 + 2

He/Con 3a: 126 % of GpH7-A5/GpH7-B3/GpL16-k0
B16: GpH7-A5/GpH7-B3 variant G236_20W/GpL16-k0 (antibody, human IgG1, kappa)
heavy 1: not shown
heavy 2: not shown
light: B2 light
notes: copies: 1 + 1 + 2

He/Con 3a: 121 % of GpH7-A5/GpH7-B3/GpL16-k0
B18: GpH7-A5/GpH7-B3 variant H268_13S/GpL16-k0 (antibody, human IgG1, kappa)
heavy 1: not shown
heavy 2: not shown
light: B2 light
notes: copies: 1 + 1 + 2

He/Con 3a: 116 % of GpH7-A5/GpH7-B3/GpL16-k0
B19: GpH7-A5/GpH7-B3 variant I332_20W/GpL16-k0 (antibody, human IgG1, kappa)
heavy 1: not shown
heavy 2: not shown
light: B2 light
notes: copies: 1 + 1 + 2

He/Con 3a: 76 % of GpH7-A5/GpH7-B3/GpL16-k0
B22: GpH7-A5/GpH7-B3 variant H268_12R/GpL16-k0 (antibody, human IgG1, kappa)
heavy 1: not shown
heavy 2: not shown
light: B2 light
notes: copies: 1 + 1 + 2

He/Con 3a: 65.8 % of GpH7-A5/GpH7-B3/GpL16-k0
B26: GpH7-A5/GpH7-B3 variant G236_10E/GpL16-k0 (antibody, human IgG1, kappa)
heavy 1: not shown
heavy 2: not shown
light: B2 light
notes: copies: 1 + 1 + 2

He/Con 3a: 189 % of GpH7-A5/GpH7-B3/GpL16-k0
B29: GpH7-A5/GpH7-B3 variant I332_09D/GpL16-k0 (antibody, human IgG1, kappa)
heavy 1: not shown
heavy 2: not shown
light: B2 light
notes: copies: 1 + 1 + 2

Continued, binder first:

B1: GpH7-A5/GpH7-B3 variant E333_13S/GpL16-k0 (antibody, human IgG1, kappa)
heavy 1: not shown
heavy 2: not shown
light: B2 light
notes: copies: 1 + 1 + 2
He/Con 3a: 106 % of GpH7-A5/GpH7-B3/GpL16-k0

B3: GpH7-A5/GpH7-B3 variant I336_02A/GpL16-k0 (antibody, human IgG1, kappa)
heavy 1: not shown
heavy 2: not shown
light: B2 light
notes: copies: 1 + 1 + 2
He/Con 3a: 106 % of GpH7-A5/GpH7-B3/GpL16-k0

B4: GpH7-A5/GpH7-B3 variant I332_03V/GpL16-k0 (antibody, human IgG1, kappa)
heavy 1: not shown
heavy 2: not shown
light: B2 light
notes: copies: 1 + 1 + 2
He/Con 3a: 85.2 % of GpH7-A5/GpH7-B3/GpL16-k0

B5: GpH7-A5/GpH7-B3 variant H268_07I/GpL16-k0 (antibody, human IgG1, kappa)
heavy 1: not shown
heavy 2: not shown
light: B2 light
notes: copies: 1 + 1 + 2
He/Con 3a: 84.1 % of GpH7-A5/GpH7-B3/GpL16-k0

B6: GpH7-A5/GpH7-B3 variant I336_04F/GpL16-k0 (antibody, human IgG1, kappa)
heavy 1: not shown
heavy 2: not shown
light: B2 light
notes: copies: 1 + 1 + 2
He/Con 3a: 93.2 % of GpH7-A5/GpH7-B3/GpL16-k0

B7: GpH7-A5/GpH7-B3 variant G236_09D/GpL16-k0 (antibody, human IgG1, kappa)
heavy 1: not shown
heavy 2: not shown
light: B2 light
notes: copies: 1 + 1 + 2
He/Con 3a: 66.2 % of GpH7-A5/GpH7-B3/GpL16-k0

B8: GpH7-A5/GpH7-B3 variant I332_14T/GpL16-k0 (antibody, human IgG1, kappa)
heavy 1: not shown
heavy 2: not shown
light: B2 light
notes: copies: 1 + 1 + 2
He/Con 3a: 110 % of GpH7-A5/GpH7-B3/GpL16-k0

B10: GpH7-A5/GpH7-B3 variant H268_01G/GpL16-k0 (antibody, human IgG1, kappa)
heavy 1: not shown
heavy 2: not shown
light: B2 light
notes: copies: 1 + 1 + 2
He/Con 3a: 95.7 % of GpH7-A5/GpH7-B3/GpL16-k0

B11: GpH7-A5/GpH7-B3 variant E333_16H/GpL16-k0 (antibody, human IgG1, kappa)
heavy 1: not shown
heavy 2: not shown
light: B2 light
notes: copies: 1 + 1 + 2
He/Con 3a: 106 % of GpH7-A5/GpH7-B3/GpL16-k0

B12: GpH7-A5/GpH7-B3 variant I332_16H/GpL16-k0 (antibody, human IgG1, kappa)
heavy 1: not shown
heavy 2: not shown
light: B2 light
notes: copies: 1 + 1 + 2
He/Con 3a: 89 % of GpH7-A5/GpH7-B3/GpL16-k0

B13: GpH7-A5/GpH7-B3 variant G236_07I/GpL16-k0 (antibody, human IgG1, kappa)
heavy 1: not shown
heavy 2: not shown
light: B2 light
notes: copies: 1 + 1 + 2
He/Con 3a: 55.6 % of GpH7-A5/GpH7-B3/GpL16-k0

B17: GpH7-A5/GpH7-B3 variant H268_06M/GpL16-k0 (antibody, human IgG1, kappa)
heavy 1: not shown
heavy 2: not shown
light: B2 light
notes: copies: 1 + 1 + 2
He/Con 3a: 79.5 % of GpH7-A5/GpH7-B3/GpL16-k0

B20: GpH7-A5/GpH7-B3 variant I332_19Q/GpL16-k0 (antibody, human IgG1, kappa)
heavy 1: not shown
heavy 2: not shown
light: B2 light
notes: copies: 1 + 1 + 2
He/Con 3a: 101 % of GpH7-A5/GpH7-B3/GpL16-k0

B21: GpH7-A5/GpH7-B3 variant E333_18N/GpL16-k0 (antibody, human IgG1, kappa)
heavy 1: not shown
heavy 2: not shown
light: B2 light
notes: copies: 1 + 1 + 2
He/Con 3a: 76.2 % of GpH7-A5/GpH7-B3/GpL16-k0

B23: GpH7-A5/GpH7-B3 variant G236_15Y/GpL16-k0 (antibody, human IgG1, kappa)
heavy 1: not shown
heavy 2: not shown
light: B2 light
notes: copies: 1 + 1 + 2
He/Con 3a: 112 % of GpH7-A5/GpH7-B3/GpL16-k0

B24: GpH7-A5/GpH7-B3 variant I336_01G/GpL16-k0 (antibody, human IgG1, kappa)
heavy 1: not shown
heavy 2: not shown
light: B2 light
notes: copies: 1 + 1 + 2
He/Con 3a: 94.6 % of GpH7-A5/GpH7-B3/GpL16-k0

B25: GpH7-A5/GpH7-B3 variant I336_03V/GpL16-k0 (antibody, human IgG1, kappa)
heavy 1: not shown
heavy 2: not shown
light: B2 light
notes: copies: 1 + 1 + 2
He/Con 3a: 107 % of GpH7-A5/GpH7-B3/GpL16-k0

B27: GpH7-A5/GpH7-B3 variant G237_03V/GpL16-k0 (antibody, human IgG1, kappa)
heavy 1: not shown
heavy 2: not shown
light: B2 light
notes: copies: 1 + 1 + 2
He/Con 3a: 51.3 % of GpH7-A5/GpH7-B3/GpL16-k0

B28: GpH7-A5/GpH7-B3 variant H268_05P/GpL16-k0 (antibody, human IgG1, kappa)
heavy 1: not shown
heavy 2: not shown
light: B2 light
notes: copies: 1 + 1 + 2
He/Con 3a: 75.6 % of GpH7-A5/GpH7-B3/GpL16-k0

B30: GpH7-A5/GpH7-B3 variant H268_20W/GpL16-k0 (antibody, human IgG1, kappa)
heavy 1: not shown
heavy 2: not shown
light: B2 light
notes: copies: 1 + 1 + 2
He/Con 3a: 82 % of GpH7-A5/GpH7-B3/GpL16-k0
